Data from patent US20030108521A1 (published 2003).

Biological target: T1, F/IX delta 111-140 (human; human adenovirus type 5, UniProt P03372 553-595)
T1 construct: domain: F domain; N-terminally F-tagged pIX truncated after residue 110 (lacks half of the leucine-repeat)
T1 sequence: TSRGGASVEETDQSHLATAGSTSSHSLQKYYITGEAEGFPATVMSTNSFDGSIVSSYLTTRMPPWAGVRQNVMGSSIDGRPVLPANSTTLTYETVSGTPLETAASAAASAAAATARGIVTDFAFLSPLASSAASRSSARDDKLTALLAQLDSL
Assay: co-immunoprecipitation with anti-F antibody from A549 cell extracts, Western blot with anti-pIX

B1: non-tagged wild type adenovirus type 5 protein IX (other)
chain: MSTNSFDGSIVSSYLTTRMPPWAGVRQNVMGSSIDGRPVLPANSTTLTYETVSGTPLETAASAAASAAAATARGIVTDFAFLSPLASSAASRSSARDDKLTALLAQLDSLTRELNVVSQQLLDLRQQVSALKASSPPNAV
notes: tested in cell extracts; also called wt pIX; untagged wt pIX
Does B1 bind?
Result: no binding
